According to patent US10155811B2, “APLNR modulators and uses thereof” (Regeneron Pharmaceuticals, Inc., priority 2013, dated 2018):
“And” between values parts separate entries of the source, which are not always exact repeats. Identical values can stand only once. “Also recorded” adds a separate entry of the source.

T1: hAPLNR (Homo sapiens, UniProt P35414)
T1 sequence (P35414 1-380): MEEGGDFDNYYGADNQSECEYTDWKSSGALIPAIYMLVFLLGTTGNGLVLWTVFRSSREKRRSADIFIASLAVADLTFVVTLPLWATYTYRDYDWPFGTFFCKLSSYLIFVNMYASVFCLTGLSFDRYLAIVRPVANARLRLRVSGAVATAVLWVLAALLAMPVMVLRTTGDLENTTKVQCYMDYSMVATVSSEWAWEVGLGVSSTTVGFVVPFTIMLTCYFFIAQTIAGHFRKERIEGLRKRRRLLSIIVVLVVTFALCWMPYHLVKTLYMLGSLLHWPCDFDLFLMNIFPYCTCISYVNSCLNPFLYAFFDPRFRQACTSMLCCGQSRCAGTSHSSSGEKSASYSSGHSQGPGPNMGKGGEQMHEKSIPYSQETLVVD


Columns and labels:
hAPLNR [1] = biological target: T1, hAPLNR; assay: CRE assay of modified apelin peptides in HEK293/CRE-luc/hAPLNR cells; format: cell-based; design: expressed in transfected cells
Description: Briefly, an HEK293 cell line was transfected to stably express the full-length human hAPLNR (amino acids 1-380 of accession number NP_005152.1), along with a luciferase reporter [cAMP response element (CRE,4X)-luciferase]. […] After 5 hours of incubation at 37° C. in 5% CO2, luminescence was measured following the addition of One Glo reagent (Promega, #E6051) using a Victor X instrument (Perkin Elmer). The data were fit by nonlinear regression to a 4-parameter logistic equation with Prism 5 software (GraphPad).

hAPLNR [2] = biological target: T1, hAPLNR; assay: CRE-luciferase cyclic AMP assay, activation of hAPLNR (inhibition of Forskolin-induced cAMP) in HEK293/CRE-luc/hAPLNR cells; format: cell-based; design: expressed in transfected cells; settings: without Apelin, % of maximum Apelin activation
Description: The ability of anti-APLNR antibodies to activate hAPLNR-mediated cell signaling was measured using a cyclic AMP assay. The hAPLNR is a 7-transmembrane G-protein coupled receptor (GPCR).
The resulting cell line, HEK293/CRE-luc/hAPLNR, was maintained in DMEM containing 10% FBS, NEAA, pencillin/streptomycin, and 100 μg/mL Hygromycin B.
Testing of antibodies included a no antibody control.
The results of all assays were analyzed using nonlinear regression (4-parameter logistics) within Prism 5 software (GraphPad).

hAPLNR [3] = biological target: T1, hAPLNR; assay: retinal vascular development (RVD) model in humanized APLNR mouse pups; format: in vivo; design: from tissue; host or cells: developing retina of humanized APLNR mouse pups (75% C57BL6 / 25% Sv129), in vivo
Description: A retinal vascular development (RVD) model was used to evaluate the effects of an antagonistic anti-APLNR antibody on blood vessel outgrowth in the normal developing retina of mouse pups that were of a mixed background strain (75% C57BL6 and 25% Sv129) and homozygous for expression of human APLNR in place of mouse APLNR (humanized APLNR mice). Pups were subcutaneously injected on postnatal day 2 (P2) with either 50 mg/kg of an anti-APLNR antagonist antibody, H2aM9232N, or an irrelevant human Fc (hFc) control. Reagents were masked and labeled as Solution A and Solution B to prevent experimenter bias. At postnatal day 5, tissue samples were collected and then fixed in PBS containing 4% paraformaldehyde. Fixed tissue samples were washed with PBS three times for 15 minutes, and subsequently stained with GS Lectin I (Vector Laboratories, #FL-1101) diluted 1:200 in 1×PBS containing 1% BSA in 0.25% Triton-X 100 overnight at 25° C. to visualize retinal vasculature. The following day, stained samples were rinsed with PBS three times for 15 minutes each, flat-mounted onto slides, and coverslips were subsequently mounted using Prolong Gold (Invitrogen, #P36930). Images were taken at 20 times magnification using an epi-fluorescent microscope (Nikon Eclipse 80). The vascularized areas in the retina were measured from acquired images from this assay using Adobe Photoshop CS6 extended. Statistical differences between the results obtained from the IgG control antibody and H2aM9232N treated samples were assessed using a two tailed, unpaired Student T-test (**, p<0.001). Only after retinal vasculature area measurements and statistical analysis were completed, the sample identities were unmasked.

HEK293 parental cells = assay: FACS binding to HEK293 parental cells; settings: Table 3; 10 μg/mL antibody; anti-mouse IgG Alexa 647
Description: Binding ratios for human APLNR binding to purified anti-APLNR monoclonal antibodies were determined by a fluorescence-activated cell sorting (FACS) binding assay. […] The resulting stable cell lines, HEK293/CRE-luc/hAPLNR and HEK293/CRE-luc/MfAPLNR, were maintained in DMEM containing 10% FBS, NEAA, and penicillin/streptomycin with either 100 μg/mL Hygromycin B for hAPLNR cells or 500 μg/mL G418 for MfAPLNR cells.
For the FACS analysis, HEK293 parental, HEK293/CRE-luc/hAPLNR, and, HEK293/CRE-luc/mfAPLNR cells were dissociated using Enzyme Free Dissociation reagent (#S-004, Millipore, Billerica, Mass., USA) and 10^6 cells/well were plated onto 96-well v-bottom plates in PBS containing 1% FBS. […] Cells were then filtered and analyzed on Accuri Flow Cytometer (BD Biosciences, San Jose, Calif., USA). Unstained and secondary antibody alone controls were also tested for binding to all cell lines. […] Geometric mean (Geom. mean) of fluorescence for each antibody was then normalized to geometric mean of unstained cells to obtain relative binding of antibody (binding ratios) per each cell type: HEK293 (parental), HEK293/CRE-luc/hAPLNR and HEK293/CRE-luc/MfAPLNR.

efficacy in the CRE assay relative to apelin-13 (hAPLNR [1]) | % Activation at 100 nM mAb (at 10 uM Forskolin) (hAPLNR [2]; Table 6A) | Retinal blood vessel outgrowth (mm^2), MEAN (hAPLNR [3]; group mean, 50 mg/kg subcutaneous at P2, measured at P5) | mean reduction in retinal blood vessel outgrowth compared to control (hFc) (hAPLNR [3]; single subcutaneous injection 50 mg/kg, postnatal day 5) | Molecule | % Activation at 500 nM mAb (at […] Forskolin) (hAPLNR [2]; Table 6B) | Retinal blood vessel outgrowth (mm^2) (hAPLNR [3]; individual eyes (OD/OS), 50 mg/kg subcutaneous at P2, measured at P5, 50 mg/kg) | Binding Ratio of Geom. Mean to Unstained Cells, HEK293 Parental (HEK293 parental cells)
retain full efficacy | – | – | – | CSCC[C@H](NC(=O)[C@@H]1CCCN1C(=O)CNC(=O)[C@H](CCCCN)NC(=O)[C@H](Cc1c[nH]cn1)NC(=O)[C@H](CO)NC(=O)[C@H](CC(C)C)NC(=O)[C@H](CCCNC(=N)N)NC(=O)[C@@H]1CCCN1C(=O)[C@H](CCCNC(=N)N)NC(=O)[C@@H](N)CCC(N)=O)C(=O)N1CCC[C@H]1C(=O)N[C@@H](Cc1ccccc1)C(=O)NCC(=O)NCC(=O)NCC(=O)NCC(=O)NCC(=O)O [Apelin-13 + 5G] | – | – | –
– | No Activation | 2.84 mm^2 | approximately 30% | H2aM9232N: antagonistic anti-APLNR antibody, HCVR/LCVR SEQ ID NO: 98/106, mouse IgG2a Fc (antibody, V domains shown, mouse IgG2a Fc) VH: QVKLVESGGGVVQPGRSLRLSCAASGFTFSNYVIHWVRQAPGKGLEWVAVIWYDGSNKYYADSVKGRFTISRDNSKNTLYLQMNSLRAEDTAVYYCARDRVVRGVDYYYYYGLDVWGQGTSVTVSS VL: EIVMTQSPATLSVSPGERATLSCRASQSVRSNLAWYQQKPGQAPRLLIYGASSRATGIPARFSGTGSGTEFTLTISSLQSDDFAVYYCQQYNKWPRTFGQGTKVEIK | did not demonstrate any measurable activation; also recorded: No Activation | 2.49 mm^2 and 3.04 mm^2 and 3.57 mm^2 and 3.32 mm^2 and 2.23 mm^2 and 2.36 mm^2 | 6
